According to IntAct's records for PubMed 23434407:

B1: Calcium-binding protein 39 (Homo sapiens), Q9Y376 (parent)
chain: MPFPFGKSHKSPADIVKNLKESMAVLEKQDISDKKAEKATEEVSKNLVAMKEILYGTNEKEPQTEAVAQLAQELYNSGLLSTLVADLQLIDFEGKKDVAQIFNNILRRQIGTRTPTVEYICTQQNILFMLLKGYESPEIALNCGIMLRECIRHEPLAKIILWSEQFYDFFRYVEMSTFDIASDAFATFKDLLTRHKLLSAEFLEQHYDRFFSEYEKLLHSENYVTKRQSLKLLGELLLDRHNFTIMTKYISKPENLKLMMNLLRDKSRNIQFEAFHVFKVFVANPNKTQPILDILLKNQAKLIEFLSKFQNDRTEDEQFNDEKTYLVKQIRDLKRPAQQEA

Variants of: B1
Details: with STK26, Q9P289-1
Sequence of STK26, Q9P289-1 (Q9P289 whole entry, looked up): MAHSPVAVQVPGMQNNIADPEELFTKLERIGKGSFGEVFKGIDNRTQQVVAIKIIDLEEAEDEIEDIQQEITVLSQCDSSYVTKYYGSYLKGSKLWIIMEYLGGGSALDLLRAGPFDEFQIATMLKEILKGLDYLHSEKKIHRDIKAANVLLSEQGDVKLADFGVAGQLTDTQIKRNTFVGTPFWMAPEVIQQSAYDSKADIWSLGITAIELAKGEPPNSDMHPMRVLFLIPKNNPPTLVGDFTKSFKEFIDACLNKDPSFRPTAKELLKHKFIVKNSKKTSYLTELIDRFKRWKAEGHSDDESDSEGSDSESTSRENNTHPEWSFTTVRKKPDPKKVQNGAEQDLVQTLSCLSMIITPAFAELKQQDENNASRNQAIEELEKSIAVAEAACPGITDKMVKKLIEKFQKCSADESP

effect of a mutation on the interaction | Variant
decreasing interaction strength | MPFPFGKSHKSPADIVKNLKESMAVLEKQDISDKKAEKATEEVSKNLVAMKEILYGTNEKEPQTEAVAQLAQELYNSGLLSTLVADLQLIDFEGKKDVAQIFNNILRRQIGTRTPTVEYICTQQNILFMLLKGYESPEIALNCGIMLRECIRHEPLAKIILWSEQFYDFFRYVEMSTEDIASDAFATFKDLLTRHKLLSAEFLEQHYDRFFSEYEKLLHSENYETKRQSLKLLGELLLDRHNFTIMTKYISKPENLKLMMNLLRDKSRNIQFEAFHVFKVFVANPNKTQPILDILLKNQAKLIEFLSKFQNDRTEDEQFNDEKTYLVKQIRDLKRPAQQEA [F178E;V224E]
decreasing interaction strength | MPFPFGKSHKSPADIVKNLKESMAVLEKQDISDKKAEKATEEVSKNLVAMKEILYGTNEKEPQTEAVAQLAQELYNSGLLSTLVADLQLIDFEGKKDVAQIFNNILRRQIGTRTPTVEYICTQQNILFMLLKGYESPEIALNCGIMLRECIRHEPLAKIILWSEQFYDFFRYVEMSTEDIASDAFATFKDLLTRHKLLSAEFLEQHYDRFFSEYEKLLHSENYVTKRQSLKLLGELLLDRHNFTIMTKYISKPENLKLMMNLLRDKSRNIQFEAFHVFKVFVANPNKTQPILDILLKNQAKLIEFLSKFQNDRTEDEQFNDEKTYLVKQIRDLKRPAQQEA [F178E]
decreasing interaction strength | MPFPFGKSHKSPADIVKNLKESMAVLEKQDISDKKAEKATEEVSKNLVAMKEILYGTNEKEPQTEAVAQLAQELYNSGLLSTLVADLQLIDFEGKKDVAQIFNNILRRQIGTRTPTVEYICTQQNILFMLLKGYESPEIALNCGIMLRECIRHEPLAKIILWSEQFYDFFRYVEMSTFDIASDAFATFKDLLTRHKLLSAEFLEQHYDRFFSEYEKLLHSENYVTKRQSLKLLGELLLDRHNFTIMTKYISKPENLKLMENLLRDKSRNIQFEAFHVFKVFVANPNKTQPILDILLKNQAKLIEFLSKFQNDRTEDEQFNDEKTYLVKQIRDLKRPAQQEA [M260E]
decreasing interaction strength | MPFPFGKSHKSPADIVKNLKESMAVLEKQDISDKKAEKATEEVSKNLVAMKEILYGTNEKEPQTEAVAQLAQELYNSGLLSTLVADLQLIDFEGKKDVAQIFNNILRRQIGTRTPTVEYICTQQNILFMLLKGYESPEIALNCGIMLRECIRHEPLAKIILWSEQFYDFFRYVEMSTFDIASDAFATFKDLLTRHKLLSAEFLEQHYDRFFSEYEKLLHSENAVTKRQSLKLLGELLLDRHNFTIMTKYISKPENLKLMMNLLRDKSRNIQFEAFHVFKVFVANPNKTQPILDILLKNQAKLIEFLSKFQNDRTEDEQFNDEKTYLVKQIRDLKRPAQQEA [Y223A]
decreasing interaction strength | MPFPFGKSHKSPADIVKNLKESMAVLEKQDISDKKAEKATEEVSKNLVAMKEILYGTNEKEPQTEAVAQLAQELYNSGLLSTLVADLQLIDFEGKKDVAQIFNNILRRQIGTRTPTVEYICTQQNILFMLLKGYESPEIALNCGIMLRECIRHEPLAKIILWSEQFYDFFRYVEMSTFDIASDAFATFKDLLTRHKLLSAEFLEQHYDRFFSEYEKLLHSENYVTKAQSLKLLGELLLDRHNFTIMTKYISKPENLKLMMNLLRDKSRNIQFEAFHVFKVFVANPNKTQPILDILLKNQAKLIEFLSKFQNDRTEDEQFNDEKTYLVKQIRDLKRPAQQEA [R227A]

Variants of: B1
Details: with STK26, Q9P289-1
Remark: another data set of the same source

effect of a mutation on the interaction | Variant
disrupting interaction strength | MPFPFGKSHKSPADIVKNLKESMAVLEKQDISDKKAEKATEEVSKNLVAMKEILYGTNEKEPQTEAVAQLAQELYNSGLLSTLVADLQLIDFEGKKDVAQIFNNILRRQIGTRTPTVEYICTQQNILFMLLKGYESPEIALNCGIMLRECIRHEPLAKIILWSEQFYDFFRYVEMSTEDIASDAFATFKDLLTRHKLLSAEFLEQHYDRFFSEYEKLLHSENYETKRQSLKLLGELLLDRHNFTIMTKYISKPENLKLMMNLLRDKSRNIQFEAFHVFKVFVANPNKTQPILDILLKNQAKLIEFLSKFQNDRTEDEQFNDEKTYLVKQIRDLKRPAQQEA [F178E;V224E]
disrupting interaction strength | MPFPFGKSHKSPADIVKNLKESMAVLEKQDISDKKAEKATEEVSKNLVAMKEILYGTNEKEPQTEAVAQLAQELYNSGLLSTLVADLQLIDFEGKKDVAQIFNNILRRQIGTRTPTVEYICTQQNILFMLLKGYESPEIALNCGIMLRECIRHEPLAKIILWSEQFYDFFRYVEMSTFDIASDAFATFKDLLTRHKLLSAEFLEQHYDRFFSEYEKLLHSENYVTKRQSLKLLGELLLDRHNFTIMTKYISKPENLKLMENLLRDKSRNIQFEAFHVFKVFVANPNKTQPILDILLKNQAKLIEFLSKFQNDRTEDEQFNDEKTYLVKQIRDLKRPAQQEA [M260E]
